The text below walks through data of patent US20220177587A1, “METHODS AND USES OF VARIANT CD80 FUSION PROTEINS AND RELATED CONSTRUCTS” (Alpine Immune Sciences, Inc., priority 2018, published 2022).

One assay concerns the target CD28 (Homo sapiens, UniProt P10747). The assay is described as follows: Jurkat/IL2 + CHO/OKT3 +/- PD-L1 reporter assay: PD-L1-dependent CD28 costimulation. Format: cell-based. Set-up: host or cells: Jurkat cells expressing an IL-2-luciferase reporter. The following applies: Jurkat/IL2 + CHO/OKT3/PD-L1. As for the experimental part: Jurkat cells were then plated at 50 μL/well for a total of 100,000 cells per well.
To each well, 25 μL of test protein was added to the Jurkat cells. […] The Jurkat cells with test or control proteins were incubated for 15 minutes at room temperature. CHO-derived artificial antigen presenting cells (aAPC) displaying transduced cell surface anti-CD3 single chain Fv (OKT3) (i.e., no PD-L1), or OKT3 and PD-L1 (i.e., +PD-L1), were brought to 0.8×10^6 cells/mL, and 25 μL of cells were added to each well, bringing the final volume of each well to 100 μL. […] Jurkat cells and CHO cells were incubated for 5 hours at 37 degrees Celsius in a humidified 5% CO2 incubation chamber. Plates were then removed from the incubator and acclimated to room temperature for 15 minutes. 100 μL of a cell lysis and luciferase substrate solution (BioGlo luciferase reagent, Promega) were added to each well and the plates were incubated on an orbital shaker for 10 minutes. Luminescence was measured with a 1 second per well integration time using a BioTek Cytation luminometer, and a relative luminescence value (RLU) was determined for each test sample.
Background: In a reporter assay the amount or activity of a reporter protein is the signal.

In a further assay the target is huPD-L1 (Homo sapiens, UniProt Q9NZQ7). The assay is described as follows: Flow binding to CHO cells stably expressing PD-L1. Set-up: huCTLA4 and huPD-L1, full-length mammalian surface expression constructs were generated; expressed in transfected cells; host or cells: CHO cells, lentiviral transduction, sorted to >98% purity. The following applies: CHO cells stably expressing PD-L1. As for the experimental part:
(§1) Binding of selected immunomodulatory fusion proteins to cognate binding partners was assessed. […] Cells were sorted in a Bio-Rad S3 Cell Sorter (Bio-Rad Corp., USA) to >98% purity. Jurkat/IL2 reporter cells, which endogenously express CD28, were used to detect binding to CD28.
(§2) For staining and analysis by flow cytometry, 100,000 cells of appropriate transfected cells were plated in 96-well round bottom plates. Cells were spun down and resuspended in staining buffer (phosphate buffered saline (PBS), 1% bovine serum albumin (BSA), and 0.1% sodium azide) for 20 minutes to block non-specific binding. […] Primary staining was performed on ice for 45 minutes, before washing cells in staining buffer twice. Phycoerythrin (PE)-conjugated anti-human Fc (Jackson ImmunoResearch, USA) was diluted 1:150, added to cells and incubated another 30 minutes on ice. Cells were then washed twice with 150 μL/well stain buffer, fixed in 2% formaldehyde/PBS, and analyzed on Intellicyt flow cytometer (Intellicyt Corp., USA). PE Mean Fluorescence Intensity (MFI) was calculated for each cell type with FlowJo Version 10 software (FlowJo LLC, USA).
(§3) Binding assays were carried out to assess the specificity and affinity of multivalent proteins to cell-expressed CTLA-4, CD28, and PD-L1 counter structures.
(§4) The EC50 for binding also was determined.

Another assay addresses huCTLA4 (Homo sapiens, UniProt P16410). In words: Flow binding to CHO cells stably expressing CTLA4. The arrangement: huCTLA4 and huPD-L1, full-length mammalian surface expression constructs were generated; expressed in transfected cells; host or cells: CHO cells, lentiviral transduction, sorted to >98% purity. The following applies: CHO cells stably expressing CTLA4. As for the experimental part: as §1, §2, §3, §4

Substitutions are numbered along the chain they refer to. Names may count otherwise.

Sequence of huPD-L1 (Q9NZQ7 19-290): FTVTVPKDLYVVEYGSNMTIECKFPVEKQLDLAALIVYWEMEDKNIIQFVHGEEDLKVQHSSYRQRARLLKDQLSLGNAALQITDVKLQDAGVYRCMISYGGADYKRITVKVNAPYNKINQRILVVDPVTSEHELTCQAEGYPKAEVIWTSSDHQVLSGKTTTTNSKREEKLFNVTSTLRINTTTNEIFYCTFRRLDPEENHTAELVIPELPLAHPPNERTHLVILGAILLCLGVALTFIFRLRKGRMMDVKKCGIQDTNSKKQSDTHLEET
Sequence of huCTLA4 (P16410 36-223): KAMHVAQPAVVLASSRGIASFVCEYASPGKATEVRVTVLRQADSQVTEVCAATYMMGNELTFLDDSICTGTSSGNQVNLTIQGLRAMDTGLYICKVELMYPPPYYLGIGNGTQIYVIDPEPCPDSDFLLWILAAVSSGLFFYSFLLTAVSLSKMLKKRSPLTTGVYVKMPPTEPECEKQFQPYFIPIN

B1: V22D/E24D/E35D/M47L/V68M/L85M/D90G (protein)
chain: VIHVTKEVKEVATLSCGHNVSDEDLAQTRIYWQKDKKMVLTMMSGDLNIWPEYKNRTIFDITNNLSIMILALRPSDEGTYECVVMKYEKGAFKREHLAEVTLSVKADFPTPSISDFETPTSNIRRIICSTSGGFPEPHLSWLENGEELNAINTTVSQDPETELYAVSSKLDFNMTTNHSFMCLIKYGHLRVNQTFNWNTTKQEHFPDN
modifications: CD80 v384 ECD
For the molecule B1, in the assay with CD28 (Table E13, 5.0 nM), the “Relative Luciferase Units (RLU), CD80 Cone 5.0 nM” value was 963 RLU. Further, the “PD-L1 MFI at 33.3 nM” value in the assay with huPD-L1 (Table E11, 33.3 nM) is recorded as 19047.

B2: E35D/D46E/M47L/V68M/A71G/Y87C/K93R (protein, UniProt P33681 35-288, looked up, variant E35D D46E M47L V68M A71G Y87C K93R)
T-lymphocyte activation …: VIHVTKEVKEVATLSCGHNVSVEELAQTRIYWQKDKKMVLTMMSGELNIWPEYKNRTIFDITNNLSIMILGLRPSDEGTYECVVLKCEKDAFRREHLAEVTLSVKADFPTPSISDFEIPTSNIRRIICSTSGGFPEPHLSWLENGEELNAINTTVSQDPETELYAVSSKLDFNMTTNHSFMCLIKYGHLRVNQTFNWNTTKQEHFPDNLLPSWAITLISVNGIFVICCLTYCFAPRCRERRRNERLRRESVRPV
For the molecule B2, in the assay with CD28 (Table E13, 5.0 nM), the “Relative Luciferase Units (RLU), CD80 Cone 5.0 nM” value is given as 1198 RLU.

B3: T13R/E35D/M47L/V68M (protein, UniProt P33681 35-288, looked up, variant T13R E35D M47L V68M)
T-lymphocyte activation …: B2 T-lymphocyte activation … with T13R, E46D, G71A, C87Y, R93K
For the molecule B3, in the assay with CD28 (Table E13, 5.0 nM), the “Fold Increase over WT CD80-IgV-Fe” value amounted to 2.6 and the “Relative Luciferase Units (RLU), CD80 Cone 5.0 nM” value is reported as 1021 RLU.

B4: E35D/M47V/N48K/V68M/L85M (protein, UniProt P33681 35-288, looked up, variant E35D M47V N48K V68M L85M)
T-lymphocyte activation …: B2 T-lymphocyte activation … with E46D, L47V, N48K, G71A, L85M, C87Y, R93K
Regarding B4, in the assay with CD28 (Table E13, 5.0 nM), the “Fold Increase over WT CD80-IgV-Fe” value is given as 3.0 and the “Relative Luciferase Units (RLU), CD80 Cone 5.0 nM” value amounted to 1203 RLU.

B5: H18V/A26N/E35D/M47V/V68M/A71G (protein, UniProt P33681 35-288, looked up, variant H18V A26N E35D M47V V68M A71G)
T-lymphocyte activation …: B2 T-lymphocyte activation … with H18V, A26N, E46D, L47V, C87Y, R93K
As for B5, the “Relative Luciferase Units (RLU), CD80 Conc 5.0 nM” value in the assay with CD28 (Table E24, 5.0 nM) was 985 RLU. Besides, in the assay with huPD-L1 (Table E23, CD80 IgV-Fc (inert) at 33.3 nM), the “PD-L1 MFI at 33.3 nM” value stood at 68165.

B6: E35D/M38I/M43V/M47V/N48R/L85Q (protein)
chain: VIHVTKEVKEVATLSCGHNVSVEELAQTRIYWQKDKKTVLTMVSGDVRIWPEYKNRTIFDITNNLSIVILALRPSDEGTYECVVQKYEKDAFKREHLAEVTLSVKAD
Turning to B6, the “CTLA4 MFI at 33.3 nM” value with huCTLA4 (Table E4, 33.3 nM variant CD80 IgV-Fc) came out at 203938.

B7: M47V/N48K/V68M/K89N (protein)
chain: B6 chain with D35E, T38M, V43M, R48K, V68M, Q85L, K89N
B7: the “Relative Luciferase Units (RLU), CD80 Conc 5.0 nM” value in the assay with CD28 (Table E21, CD80 Conc 5.0 nM) worked out at 671 RLU. For the same molecule, the “PD-L1 MFI at 33.3 nM” value with huPD-L1 (Table E19, 33.3 nM) is listed as 23666.

B8: H18Y/E35D/M47V/N48K (protein)
chain: B6 chain with H18Y, T38M, V43M, R48K, Q85L
B8: the “Relative Luciferase Units (RLU), CD80 Cone 5.0 nM” value with CD28 (Table E12, 5.0 nM) was 2146 RLU. In the assay with huPD-L1 (Table E10, 33.3 nM), the “PD-L1 MFI at 33.3 nM” value stood at 6462.

B9: N48K/V68M/K89N (protein)
chain: B6 chain with D35E, T38M, V43M, V47M, R48K, V68M, Q85L, K89N
On to B9, for which, in the assay with huCTLA4 (Table E19, 33.3 nM), the “CTLA4 MFI at 33.3 nM” value came to 19129. In addition, the “PD-L1 MFI at 33.3 nM” value with huPD-L1 (Table E19, 33.3 nM) was determined as 11464.

B10: H18Y/E35D/M47L/A71G (protein)
chain: B6 chain with H18Y, T38M, V43M, V47L, R48N, A71G, Q85L
Consider B10, for which the “Relative Luciferase Units (RLU), CD80 Conc 5.0 nM” value in the assay with CD28 (Table E22, CD80 Conc 5.0 nM) stood at 1387 RLU.

B11: H181/A26P/E35D/M47V/V68M/A71G (protein)
chain: B6 chain with H18I, A26P, T38M, V43M, R48N, V68M, A71G, Q85L
Consider B11, for which, in the assay with CD28 (Table E24, 5.0 nM), the “Fold Increase over WT CD80-IgV-Fe” value came to 5.4 and the “Relative Luciferase Units (RLU), CD80 Conc 5.0 nM” value is 916 RLU.

B12: E35D/M43I/M47L/L85M (protein)
chain: B6 chain with T38M, V43I, V47L, R48N, Q85M
As to B12, the “Relative Luciferase Units (RLU), CD80 Cone 5.0 nM” value in the assay with CD28 (Table E12, 5.0 nM) is reported as 1427 RLU. Besides, the “CTLA4 MFI at 33.3 nM” value with huCTLA4 (Table E10, 33.3 nM) came out at 24584.

B13: D46V/M47L (protein)
chain: B6 chain with D35E, T38M, V43M, D46V, V47L, R48N, Q85L
With B13, the “CTLA4 MFI at 33.3 nM” value in the assay with huCTLA4 (Table E19, 33.3 nM) stood at 49711.

B14: H18Y/M47L/V68M/A71G (protein)
chain: B6 chain with H18Y, D35E, T38M, V43M, V47L, R48N, V68M, A71G, Q85L
B14: in the assay with huPD-L1 (Table E20, 33.3 nM), the “PD-L1 MFI at 33.3 nM” value is given as 28478.

B15: E35D/M47V/V68M (protein)
chain: B6 chain with T38M, V43M, R48N, V68M, Q85L
As for B15, in the assay with CD28 (Table E21, CD80 Conc 5.0 nM), the “Relative Luciferase Units (RLU), CD80 Conc 5.0 nM” value is on record as 841 RLU.

B16: H18Y/A26P/E35D/M47T/V68M/A71G (protein)
chain: B6 chain with H18Y, A26P, T38M, V43M, V47I, R48N, V68M, A71G, Q85L
Turning to B16, in the assay with CD28 (Table E24, 5.0 nM), the “Fold Increase over WT CD80-IgV-Fe” value was determined as 4.5 and the “Relative Luciferase Units (RLU), CD80 Conc 5.0 nM” value was 761 RLU.

B17: T13R/Q27L/Q33L/E35D/T41S/M47V/N48KN68M/L85M (protein)
chain: B6 chain with T13R, Q27L, Q33L, T38M, T41S, V43M, R48K, V68M, Q85M
Take B17: in the assay with CD28 (Table E13, 5.0 nM), the “Fold Increase over WT CD80-IgV-Fe” value amounted to 0.4 and the “Relative Luciferase Units (RLU), CD80 Cone 5.0 nM” value amounted to 170 RLU.

B18: D46V/M47L/V68M/L85Q (protein)
chain: B6 chain with D35E, T38M, V43M, D46V, V47L, R48N, V68M
Consider B18, for which the “Relative Luciferase Units (RLU), CD80 Conc 5.0 nM” value with CD28 (Table E21, CD80 Conc 5.0 nM) was 654 RLU.

B19: E35D/M47L/A71G (protein)
chain: B6 chain with T38M, V43M, V47L, R48N, A71G, Q85L
B19: in the assay with CD28 (Table E12, 5.0 nM), the “Relative Luciferase Units (RLU), CD80 Cone 5.0 nM” value stood at 1954 RLU. Moreover, the “CTLA4 MFI at 33.3 nM” value with huCTLA4 (Table E10, 33.3 nM) came to 20576.

B20: E35D/D46V (protein)
chain: B6 chain with T38M, V43M, D46V, V47M, R48N, Q85L
With B20, the “PD-L1 MFI at 33.3 nM” value in the assay with huPD-L1 (Table E19, 33.3 nM) turned out to be 3971.
